The values that follow come from patent publication US20060292145A1 (JAPAN SCIENCE AND TECHNOLOGY, published 2006).

In this assay the target is T1, human interleukin-18 (human, UniProt Q14116 37-193).
T1 construct: Immobilised on plates in the ELISAs; also called human IL-18; IL-18
T1 sequence (looked up): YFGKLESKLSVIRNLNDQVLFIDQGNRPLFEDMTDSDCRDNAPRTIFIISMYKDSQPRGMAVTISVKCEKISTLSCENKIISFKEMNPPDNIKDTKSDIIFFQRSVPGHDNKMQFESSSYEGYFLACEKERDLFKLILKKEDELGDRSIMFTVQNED
As to the kind of experiment: phage ELISA, scFv-presenting phage on immobilised human IL-18 (HSA as comparison), anti-M13 detection, A405. On the procedure: ELISA for screening separated clones was carried out by immobilizing human IL-18 on an ELISA plate. Specifically, 2 μg/ml of human IL-18 and 2.5 μg/ml of human serum albumin (HSA) were put in a 40 μL/well ELISA plate (Nunc), allowed to stand for 16 hours at 4° C., and then immobilized on the plate. For blocking, 400 μL/well of PBS solution containing 0.5% BSA, 0.5% gelatin, and 5% skim milk was put in the ELISA plate, and then allowed to stand for 2 hours at 4° C.
Next, into the ELISA plate, 40 μL/well of sample solution containing an scFV-presenting phage was poured, and the mixture was allowed to react. Thereafter, the sample solution was removed, and the product was washed 5 times by using a cleaning liquid. Subsequently, to the immobilized scFv phage, a biotin-labeled anti-M13 monoclonal antibody (Pharmacia biotech) was added, and the mixture was allowed to react with an alkaline phosphatase (AP)-labeled anti-mouse IgG antibody serving as a secondary antibody. The reaction liquid was washed 5 times by using a cleaning liquid.
On the technique in general: ELISA stands for enzyme-linked immunosorbent assay.

B1: human anti-human IL-18 scFv fragment h18-108 (scFv, V domains shown)
VH: QVQLVQSGAEVRRPGASVRVSCKASGYTFTSHYIHWVRQAPGQGLEWVAIINPSDGRTDYAQKFQGRVTVTRDTSASSVYMGISSLRSEDTAMYYCARTARGFSYATDWGQGTLVTVSS
VL: SYELTQPPSVSVSPGQTARITCSGDALPKKYAYWYQQKPGQAPVLVIYKDSERPSGIPERFSGSSSGTTVTLTISGVQAEDEADYYCQSADSSGTYVVFGGGTQLTVL
notes: Expressed in E. coli from pCANTAB5E and purified on anti-E tag antibody; By gel filtration 90% monomer, 10% dimer
B1: the binding result was “binds”.
